Numbered stars: 1 amine (or outer) side, 2 acyl side, 3 side chain; on linkers, the order of the positions; unused ones are H or OH. Square brackets hold non-standard residues; d marks the D form. Ends that are not written are not given here. * marks the point of attachment. Cholesteryloxycarbonyl = CC(C)CCC[C@@H](C)[C@H]1CC[C@H]2[C@@H]3CC=C4C[C@@H](OC(=O)*)CC[C@]4(C)[C@H]3CC[C@]12C; Ser(Me) = COC[C@H](N[*:1])C(=O)[*:2]; hLeu = CC(C)CC[C@H](N)C(=O)O; Nva = CCC[C@H](N)C(=O)O; Dap = NC[C@H](N)C(=O)O; GABA = NCCCC(=O)O; βAla = NCCC(=O)O
Target: protein kinase B (PKB)
Experiment: cell-based or functional assay

| IC50, in vitro kinase assay PKB | Binder |
| --- | --- |
| 100 nM | Cholesteryloxycarbonyl-[dK][dK][dK][dK][dK]RPR[Nva]Y[Dap][hLeu]-NH2 (SMILES CCC[C@H](NC(=O)[C@H](CCCNC(=N)N)NC(=O)[C@@H]1CCCN1C(=O)[C@H](CCCNC(=N)N)NC(=O)[C@@H](CCCCN)NC(=O)[C@@H](CCCCN)NC(=O)[C@@H](CCCCN)NC(=O)[C@@H](CCCCN)NC(=O)[C@@H](CCCCN)NC(=O)O[C@H]1CC[C@@]2(C)C(=CC[C@H]3[C@@H]4CC[C@H]([C@H](C)CCCC(C)C)[C@@]4(C)CC[C@@H]32)C1)C(=O)N[C@@H](Cc1ccc(O)cc1)C(=O)N[C@@H](CN)C(=O)N[C@@H](CCC(C)C)C(N)=O) [PTR 6324] |
| 100 nM | Cholesteryloxycarbonyl-[dK][dK][dK][dK][dK][dK][dK][dK]RPR[Nva]Y[Dap][hLeu]-NH2 (SMILES CCC[C@H](NC(=O)[C@H](CCCNC(=N)N)NC(=O)[C@@H]1CCCN1C(=O)[C@H](CCCNC(=N)N)NC(=O)[C@@H](CCCCN)NC(=O)[C@@H](CCCCN)NC(=O)[C@@H](CCCCN)NC(=O)[C@@H](CCCCN)NC(=O)[C@@H](CCCCN)NC(=O)[C@@H](CCCCN)NC(=O)[C@@H](CCCCN)NC(=O)[C@@H](CCCCN)NC(=O)O[C@H]1CC[C@@]2(C)C(=CC[C@H]3[C@@H]4CC[C@H]([C@H](C)CCCC(C)C)[C@@]4(C)CC[C@@H]32)C1)C(=O)N[C@@H](Cc1ccc(O)cc1)C(=O)N[C@@H](CN)C(=O)N[C@@H](CCC(C)C)C(N)=O) [PTR 6962] |
| 200 nM | Cholesteryloxycarbonyl-[dK][dK]RPR[Nva]Y[Dap][hLeu]-NH2 (SMILES CCC[C@H](NC(=O)[C@H](CCCNC(=N)N)NC(=O)[C@@H]1CCCN1C(=O)[C@H](CCCNC(=N)N)NC(=O)[C@@H](CCCCN)NC(=O)[C@@H](CCCCN)NC(=O)O[C@H]1CC[C@@]2(C)C(=CC[C@H]3[C@@H]4CC[C@H]([C@H](C)CCCC(C)C)[C@@]4(C)CC[C@@H]32)C1)C(=O)N[C@@H](Cc1ccc(O)cc1)C(=O)N[C@@H](CN)C(=O)N[C@@H](CCC(C)C)C(N)=O) [PTR 6318] |
| 1000 nM | Cholesteryloxycarbonyl-GGGRPR[Nva]Y[Dap][hLeu]-NH2 (SMILES CCC[C@H](NC(=O)[C@H](CCCNC(=N)N)NC(=O)[C@@H]1CCCN1C(=O)[C@H](CCCNC(=N)N)NC(=O)CNC(=O)CNC(=O)CNC(=O)O[C@H]1CC[C@@]2(C)C(=CC[C@H]3[C@@H]4CC[C@H]([C@H](C)CCCC(C)C)[C@@]4(C)CC[C@@H]32)C1)C(=O)N[C@@H](Cc1ccc(O)cc1)C(=O)N[C@@H](CN)C(=O)N[C@@H](CCC(C)C)C(N)=O) [PTR 6330] |
| 100 nM | Cholesteryloxycarbonyl-[dK][dK][dK][dK]RPR[Nva]Y[Dap][hLeu]-NH2 (SMILES CCC[C@H](NC(=O)[C@H](CCCNC(=N)N)NC(=O)[C@@H]1CCCN1C(=O)[C@H](CCCNC(=N)N)NC(=O)[C@@H](CCCCN)NC(=O)[C@@H](CCCCN)NC(=O)[C@@H](CCCCN)NC(=O)[C@@H](CCCCN)NC(=O)O[C@H]1CC[C@@]2(C)C(=CC[C@H]3[C@@H]4CC[C@H]([C@H](C)CCCC(C)C)[C@@]4(C)CC[C@@H]32)C1)C(=O)N[C@@H](Cc1ccc(O)cc1)C(=O)N[C@@H](CN)C(=O)N[C@@H](CCC(C)C)C(N)=O) [PTR 6322] |
| 100 nM | Cholesteryloxycarbonyl-[dK][dK][dK][dK][dK][dK]RPR[Nva]Y[Dap][hLeu]-NH2 (SMILES CCC[C@H](NC(=O)[C@H](CCCNC(=N)N)NC(=O)[C@@H]1CCCN1C(=O)[C@H](CCCNC(=N)N)NC(=O)[C@@H](CCCCN)NC(=O)[C@@H](CCCCN)NC(=O)[C@@H](CCCCN)NC(=O)[C@@H](CCCCN)NC(=O)[C@@H](CCCCN)NC(=O)[C@@H](CCCCN)NC(=O)O[C@H]1CC[C@@]2(C)C(=CC[C@H]3[C@@H]4CC[C@H]([C@H](C)CCCC(C)C)[C@@]4(C)CC[C@@H]32)C1)C(=O)N[C@@H](Cc1ccc(O)cc1)C(=O)N[C@@H](CN)C(=O)N[C@@H](CCC(C)C)C(N)=O) [PTR 6326] |
| 200 nM | Cholesteryloxycarbonyl-[dK][dK][dK]RPR[Nva]Y[Dap][hLeu]-NH2 (SMILES CCC[C@H](NC(=O)[C@H](CCCNC(=N)N)NC(=O)[C@@H]1CCCN1C(=O)[C@H](CCCNC(=N)N)NC(=O)[C@@H](CCCCN)NC(=O)[C@@H](CCCCN)NC(=O)[C@@H](CCCCN)NC(=O)O[C@H]1CC[C@@]2(C)C(=CC[C@H]3[C@@H]4CC[C@H]([C@H](C)CCCC(C)C)[C@@]4(C)CC[C@@H]32)C1)C(=O)N[C@@H](Cc1ccc(O)cc1)C(=O)N[C@@H](CN)C(=O)N[C@@H](CCC(C)C)C(N)=O) [PTR 6320] |
| 1000 nM | Cholesteryloxycarbonyl-GGRPR[Nva]Y[Dap][hLeu]-NH2 (SMILES CCC[C@H](NC(=O)[C@H](CCCNC(=N)N)NC(=O)[C@@H]1CCCN1C(=O)[C@H](CCCNC(=N)N)NC(=O)CNC(=O)CNC(=O)O[C@H]1CC[C@@]2(C)C(=CC[C@H]3[C@@H]4CC[C@H]([C@H](C)CCCC(C)C)[C@@]4(C)CC[C@@H]32)C1)C(=O)N[C@@H](Cc1ccc(O)cc1)C(=O)N[C@@H](CN)C(=O)N[C@@H](CCC(C)C)C(N)=O) [PTR 6328] |

Continued, binder first:

| Binder | IC50, in vitro kinase assay PKB |
| --- | --- |
| Cholesteryloxycarbonyl-[GABA]RPR[Nva]Y[Dap][hLeu]-NH2 (SMILES CCC[C@H](NC(=O)[C@H](CCCNC(=N)N)NC(=O)[C@@H]1CCCN1C(=O)[C@H](CCCNC(=N)N)NC(=O)CCCNC(=O)O[C@H]1CC[C@@]2(C)C(=CC[C@H]3[C@@H]4CC[C@H]([C@H](C)CCCC(C)C)[C@@]4(C)CC[C@@H]32)C1)C(=O)N[C@@H](Cc1ccc(O)cc1)C(=O)N[C@@H](CN)C(=O)N[C@@H](CCC(C)C)C(N)=O) [PTR 6298] | 2000 nM |
| [dK][dK][dK][dK][dK][dK][dK][dK]RPR[Nva]Y[Dap][hLeu]K(Cholesteryloxycarbonyl)-NH2 (N-terminus assumed; SMILES CCC[C@H](NC(=O)[C@H](CCCNC(=N)N)NC(=O)[C@@H]1CCCN1C(=O)[C@H](CCCNC(=N)N)NC(=O)[C@@H](CCCCN)NC(=O)[C@@H](CCCCN)NC(=O)[C@@H](CCCCN)NC(=O)[C@@H](CCCCN)NC(=O)[C@@H](CCCCN)NC(=O)[C@@H](CCCCN)NC(=O)[C@@H](CCCCN)NC(=O)[C@H](N)CCCCN)C(=O)N[C@@H](Cc1ccc(O)cc1)C(=O)N[C@@H](CN)C(=O)N[C@@H](CCC(C)C)C(=O)N[C@@H](CCCCNC(=O)O[C@H]1CC[C@@]2(C)C(=CC[C@H]3[C@@H]4CC[C@H]([C@H](C)CCCC(C)C)[C@@]4(C)CC[C@@H]32)C1)C(N)=O) [PTR 6312] | 100 nM |
| Cholesteryloxycarbonyl-[βAla]RPR[Nva]Y[Dap][hLeu]-NH2 (SMILES CCC[C@H](NC(=O)[C@H](CCCNC(=N)N)NC(=O)[C@@H]1CCCN1C(=O)[C@H](CCCNC(=N)N)NC(=O)CCNC(=O)O[C@H]1CC[C@@]2(C)C(=CC[C@H]3[C@@H]4CC[C@H]([C@H](C)CCCC(C)C)[C@@]4(C)CC[C@@H]32)C1)C(=O)N[C@@H](Cc1ccc(O)cc1)C(=O)N[C@@H](CN)C(=O)N[C@@H](CCC(C)C)C(N)=O) [PTR 6296] | 2000 nM |
| Cholesteryloxycarbonyl-GRPR[Nva]Y[Ser(Me)][hLeu]-NH2 (SMILES CCC[C@H](NC(=O)[C@H](CCCNC(=N)N)NC(=O)[C@@H]1CCCN1C(=O)[C@H](CCCNC(=N)N)NC(=O)CNC(=O)O[C@H]1CC[C@@]2(C)C(=CC[C@H]3[C@@H]4CC[C@H]([C@H](C)CCCC(C)C)[C@@]4(C)CC[C@@H]32)C1)C(=O)N[C@@H](Cc1ccc(O)cc1)C(=O)N[C@@H](COC)C(=O)N[C@@H](CCC(C)C)C(N)=O) [PTR 6306] | 500 nM |
| Cholesteryloxycarbonyl-GRPR[Nva]Y[Dap][hLeu]-NH2 (SMILES CCC[C@H](NC(=O)[C@H](CCCNC(=N)N)NC(=O)[C@@H]1CCCN1C(=O)[C@H](CCCNC(=N)N)NC(=O)CNC(=O)O[C@H]1CC[C@@]2(C)C(=CC[C@H]3[C@@H]4CC[C@H]([C@H](C)CCCC(C)C)[C@@]4(C)CC[C@@H]32)C1)C(=O)N[C@@H](Cc1ccc(O)cc1)C(=O)N[C@@H](CN)C(=O)N[C@@H](CCC(C)C)C(N)=O) [PTR 6294] | 1000 nM |
| Cholesteryloxycarbonyl-RPR[Nva]Y[Ser(Me)][hLeu]-NH2 (SMILES CCC[C@H](NC(=O)[C@H](CCCNC(=N)N)NC(=O)[C@@H]1CCCN1C(=O)[C@H](CCCNC(=N)N)NC(=O)O[C@H]1CC[C@@]2(C)C(=CC[C@H]3[C@@H]4CC[C@H]([C@H](C)CCCC(C)C)[C@@]4(C)CC[C@@H]32)C1)C(=O)N[C@@H](Cc1ccc(O)cc1)C(=O)N[C@@H](COC)C(=O)N[C@@H](CCC(C)C)C(N)=O) [PTR 6304] | 500 nM |
| Cholesteryloxycarbonyl-[βAla]RPR[Nva]Y[Ser(Me)][hLeu]-NH2 (SMILES CCC[C@H](NC(=O)[C@H](CCCNC(=N)N)NC(=O)[C@@H]1CCCN1C(=O)[C@H](CCCNC(=N)N)NC(=O)CCNC(=O)O[C@H]1CC[C@@]2(C)C(=CC[C@H]3[C@@H]4CC[C@H]([C@H](C)CCCC(C)C)[C@@]4(C)CC[C@@H]32)C1)C(=O)N[C@@H](Cc1ccc(O)cc1)C(=O)N[C@@H](COC)C(=O)N[C@@H](CCC(C)C)C(N)=O) [PTR 6308] | 500 nM |

— patent US20070078092A1 (CUREGENICS, published 2007)
